For the data set the following is noted: Bacillus amyloliquefaciens; pH 6.3; 25 °C; Urea; Fluorescence; MES 1.00 M; NaCl 613 mM; reversible: yes; whole UniProt chain shown.

The results in this text go back to FireProtDB (doi:10.1016/0022-2836(92)90906-z).

B1: Ribonuclease wild type, P00648 (protein)
chain: MMKMEGIALKKRLSWISVCLLVLVSAAGMLFSTAAKTETSSHKAHTEAQVINTFDGVADYLQTYHKLPDNYITKSEAQALGWVASKGNLADVAPGKSIGGDIFSNREGKLPGKSGRTWREADINYTSGFRNSDRILYSSDWLIYKTTDHYQTFTKIR
Take B1: the denaturant m value came out at 1.93 kcal/mol/M, the “denaturant midpoint (higher = more stable)” value stood at 4.57 M and the unfolding free energy was found to be 8.8 kcal/mol.
